Measured values reported in patent EP4596580A1 (Staidson (Beijing) Biopharmaceuticals Co., Ltd., dated 2025).
Where a chain is given by its changes, count along the chain named. Blank lines part the entries; values can stand above or below the binder they belong to.

What was measured:
His-human LIGHT [1] = target: T1, His-human LIGHT (human); assay: cell-based or functional assay
T1 chain: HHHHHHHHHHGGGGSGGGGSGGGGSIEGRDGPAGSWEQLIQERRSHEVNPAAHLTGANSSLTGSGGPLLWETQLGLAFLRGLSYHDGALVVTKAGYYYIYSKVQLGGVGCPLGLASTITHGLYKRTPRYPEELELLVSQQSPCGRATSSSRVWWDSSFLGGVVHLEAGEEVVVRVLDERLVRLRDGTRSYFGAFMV

His-human LIGHT [2] = target: T1, His-human LIGHT; assay: SPR, Biacore 8K, antibody on CM5 chip
His-human LIGHT [3] = target: T1, His-human LIGHT; assay: ELISA, His-huLIGHT coated
[4] = target: T2, His-cynomolgus monkey LIGHT (cynomolgus monkey); assay: ELISA, His-cynoLIGHT coated
T2 construct: also called His-cynoLIGHT
T2 chain: T1 chain with P32H, A33G, E47Q, V48N, S83D, V91A, T92N, S149N, A167V

hFc-human LIGHT [5] = target: T3, hFc-human LIGHT (human); assay: competition ELISA, LTβR-His coated, hFc-huLIGHT 1 µg/ml
T3 construct: also called hFc-huLIGHT

hFc-human LIGHT [6] = target: T3, hFc-human LIGHT; assay: competition ELISA, LTβR-His coated, hFc-huLIGHT added
hFc-human LIGHT [7] = target: T3, hFc-human LIGHT; assay: competition ELISA, HVEM-His coated, hFc-huLIGHT 1 µg/ml
His-human LIGHT [8] = target: T1, His-human LIGHT; assay: cell-based or functional assay
His-human LIGHT [9] = target: T1, His-human LIGHT; assay: cell-based or functional assay
[10] = target: LIGHT on the surface of HEK293-LIGHT stable cells (human, UniProt O43557 1-240); assay: cell-based or functional assay
[11] = target: T2, His-cynomolgus monkey LIGHT; assay: ELISA, His-cynoLIGHT coated
His-human LIGHT [12] = target: T1, His-human LIGHT; assay: cell-based or functional assay

IC50, HVEM NF-κB luciferase reporter (293T-HVEM-NF-κB-Luc), free LIGHT (His-human LIGHT [1]): 0.207 µg/mL | Kd (His-human LIGHT [2]): 0.0235 nM | koff (His-human LIGHT [2]): 4.07e-05 s⁻¹ | kon (His-human LIGHT [2]): 1.73e+06 M⁻¹ s⁻¹ | EC50 (His-human LIGHT [3]): 0.0221 µg/mL | binding result [4]: binds
B1: LT-m33 (antibody, human IgG4, V domains shown)
VH: QVQLKQSGAELVKPGASVRLSCKTSGYTFTNYYVYWVKQRPGQGLEWIGEINPTNGDPNFNEKFKSKATLTVDKSSSTAYMHLSSLTSEDSAVYYCTRSNWDYGNAMDFWGQGTSVTVSS
VL: DIVMTQSPASLAVSLGQRATISCKASQSVDFDGDGYMNWYQQKPGQPPKLLIYKASHLDSGIPARFSGSGSGTDFTLNIHPVEEEDAATYYCQQSIEDPLTFGDGTRLEIK

IC50, HVEM NF-κB luciferase reporter (293T-HVEM-NF-κB-Luc), free LIGHT (His-human LIGHT [1]): 0.105 µg/mL | Kd (His-human LIGHT [2]): 0.0395 nM | koff (His-human LIGHT [2]): 4.03e-05 s⁻¹ | kon (His-human LIGHT [2]): 1.02e+06 M⁻¹ s⁻¹ | EC50 (His-human LIGHT [3]): 0.0256 µg/mL | binding result [4]: binds
B2: LT-m31 (antibody, human IgG4, V domains shown)
VH: QIQLLQSGPELEKPGETVKISCKASGYTFTNYGMNWVKQAPGKGLKWMGWINTYTGEPTYADDFKGRFAFSLETSASTAYLQINNLKNEDTATYFCARDNWDGKGMDYWGQGTSVTVSS
VL: DIVLTQSPKFMSTSVGDRVSITCKASQDVDTAVAWYQQKPGHSPKLLLYWASTRHTGVPDRFTGSGSGTDFTLTISNVQSEDLADYFCHQYGSYPLTFGAGTKLELK

IC50, HVEM NF-κB luciferase reporter (293T-HVEM-NF-κB-Luc), free LIGHT (His-human LIGHT [1]): 0.264 µg/mL | IC50 ratio (IC50 of the antibody / IC50 of F19) (hFc-human LIGHT [5]): 0.301 | IC50 (hFc-human LIGHT [6]): 0.866 nM | IC50 ratio (IC50 of the antibody / IC50 of F19) (hFc-human LIGHT [7]): 0.435 | IC50, LIGHT induced MMP-9 production in BEAS-2B bronchial epithelial cells (His-human LIGHT [8]): 0.359 µg/mL | EC50 (His-human LIGHT [3]): 0.0774 µg/mL | IC50, LTβR NF-κB luciferase reporter, free LIGHT (His-human LIGHT [9]): 0.257 nM | IC50, LTβR NF-κB luciferase reporter, HEK293-LIGHT cells [10]: 2.28 nM | EC50 [11]: 0.157 nM | IC50, HVEM NF-κB luciferase reporter, free LIGHT (His-human LIGHT [12]): 0.402 nM
B3: LT-m37 (antibody, human IgG4, V domains shown)
VH: QVQLKQSGAELVRPGTSVKVSCKASGYSFTGYFINWVKQSHGKSLEWIGRIYPYNVNTFYNQNFKGRATLTADKSSSTAHMELLSLTSEDSAVYYCGRGTHYYGSSGAMDYWGQGTSVTVSS
VL: DILLTQSHKFMSTSVGDRVSITCKASQNVGTAVAWYQQKPGQSPKLLIYSASNRYTGVPDRFTGSGSGTDFTLTISNMQSEDLADYFCQQYSSYPYTFGGGTKLEIK
